# Data from PMC10090139.
# Target: endogenous KIT of C57 mouse mast cells (UniProt P05532)
# Experiment: immunoprecipitation with anti-Flag antibody and immunoblot, densitometric analysis by ImageJ
# Conditions: n = 4, p = 0.0013 (two-tailed unpaired Student's t-test), parent: est. 1.0, read off a plot
# Chain of UniProt P05532 (P05532 25-979): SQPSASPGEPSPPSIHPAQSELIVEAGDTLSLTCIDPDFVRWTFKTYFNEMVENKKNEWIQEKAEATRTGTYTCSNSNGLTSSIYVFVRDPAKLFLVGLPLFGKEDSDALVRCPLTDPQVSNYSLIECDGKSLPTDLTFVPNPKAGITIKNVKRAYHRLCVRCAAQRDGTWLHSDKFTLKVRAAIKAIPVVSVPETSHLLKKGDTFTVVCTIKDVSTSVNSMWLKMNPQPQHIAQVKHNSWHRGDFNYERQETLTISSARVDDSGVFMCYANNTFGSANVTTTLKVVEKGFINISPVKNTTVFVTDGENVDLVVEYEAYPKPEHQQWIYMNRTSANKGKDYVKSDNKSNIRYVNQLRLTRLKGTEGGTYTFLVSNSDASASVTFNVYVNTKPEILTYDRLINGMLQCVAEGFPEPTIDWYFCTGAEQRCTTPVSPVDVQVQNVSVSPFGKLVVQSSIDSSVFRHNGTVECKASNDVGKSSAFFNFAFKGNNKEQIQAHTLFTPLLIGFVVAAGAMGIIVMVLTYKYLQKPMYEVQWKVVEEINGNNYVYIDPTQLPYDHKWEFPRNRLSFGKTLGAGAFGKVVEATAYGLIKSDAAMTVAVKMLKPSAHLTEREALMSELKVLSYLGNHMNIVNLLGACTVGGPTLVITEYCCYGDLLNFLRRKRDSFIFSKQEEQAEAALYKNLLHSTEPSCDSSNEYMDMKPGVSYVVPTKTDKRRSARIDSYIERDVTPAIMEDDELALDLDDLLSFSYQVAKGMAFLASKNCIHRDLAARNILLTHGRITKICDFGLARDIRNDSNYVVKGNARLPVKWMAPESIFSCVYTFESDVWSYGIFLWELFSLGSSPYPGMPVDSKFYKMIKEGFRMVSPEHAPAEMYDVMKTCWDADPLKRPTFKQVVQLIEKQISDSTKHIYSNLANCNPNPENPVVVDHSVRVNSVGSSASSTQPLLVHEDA
substance,measurement,value
"wild-type MCEMP1 with carboxyl-terminal Flag, stably expressed in C57 mouse mast cells (from UniProt Q8IX19) YF",ratio to parent,0.45
